Patent publication US20200157212A1 (Pfizer, published 2020)

T1: Terbium (Tb) labeled-SNAP tagged ROBO2 expressed on HEK293 cells (Homo sapiens (Human), UniProt Q9HCK4 22-1378, terbium label on the SNAP tag)
T1 construct: also called Tb-labeled ROBO2 cells; ROBO2 expressing cells; not shown: SNAP tag
T1 sequence: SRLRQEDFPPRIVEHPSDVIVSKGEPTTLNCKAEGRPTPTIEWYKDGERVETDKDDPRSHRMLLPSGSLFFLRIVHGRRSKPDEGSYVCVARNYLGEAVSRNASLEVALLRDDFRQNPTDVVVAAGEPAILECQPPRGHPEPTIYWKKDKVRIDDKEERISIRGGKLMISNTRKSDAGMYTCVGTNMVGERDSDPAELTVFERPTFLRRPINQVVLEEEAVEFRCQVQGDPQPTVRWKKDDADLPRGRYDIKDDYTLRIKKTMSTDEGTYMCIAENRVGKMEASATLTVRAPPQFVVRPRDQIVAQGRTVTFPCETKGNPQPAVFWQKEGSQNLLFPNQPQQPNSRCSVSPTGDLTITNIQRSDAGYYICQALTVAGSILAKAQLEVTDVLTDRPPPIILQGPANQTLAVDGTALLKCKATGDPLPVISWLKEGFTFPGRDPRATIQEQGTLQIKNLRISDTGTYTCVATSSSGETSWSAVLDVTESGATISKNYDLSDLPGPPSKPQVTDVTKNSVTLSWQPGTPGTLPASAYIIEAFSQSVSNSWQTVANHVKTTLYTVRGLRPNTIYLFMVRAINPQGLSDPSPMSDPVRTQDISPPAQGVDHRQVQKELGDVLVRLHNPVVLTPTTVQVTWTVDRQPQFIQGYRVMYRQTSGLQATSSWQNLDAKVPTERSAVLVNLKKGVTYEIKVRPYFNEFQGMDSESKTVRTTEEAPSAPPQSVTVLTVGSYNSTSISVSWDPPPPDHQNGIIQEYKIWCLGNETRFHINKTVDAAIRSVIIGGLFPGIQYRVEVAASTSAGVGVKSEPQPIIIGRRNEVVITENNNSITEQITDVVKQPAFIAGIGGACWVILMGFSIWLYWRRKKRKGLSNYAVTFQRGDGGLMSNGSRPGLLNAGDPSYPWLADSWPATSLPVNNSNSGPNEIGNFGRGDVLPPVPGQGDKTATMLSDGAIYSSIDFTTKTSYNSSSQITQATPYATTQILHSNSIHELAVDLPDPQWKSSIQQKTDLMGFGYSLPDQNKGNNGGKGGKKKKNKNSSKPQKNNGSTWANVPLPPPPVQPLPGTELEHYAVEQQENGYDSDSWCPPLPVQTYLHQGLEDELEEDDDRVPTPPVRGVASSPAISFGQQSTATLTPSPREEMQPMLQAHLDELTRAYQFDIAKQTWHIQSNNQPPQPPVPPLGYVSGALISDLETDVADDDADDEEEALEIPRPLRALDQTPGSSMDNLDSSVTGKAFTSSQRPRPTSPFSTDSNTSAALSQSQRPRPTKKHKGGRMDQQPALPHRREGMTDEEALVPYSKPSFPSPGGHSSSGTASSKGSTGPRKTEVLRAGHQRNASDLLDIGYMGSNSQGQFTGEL

T2: Human ROBO2 overexpressed on HEK293 cells (human, UniProt Q9HCK4 22-1378)
T2 construct: also called ROBO2 cells; native ROBO2
T2 sequence: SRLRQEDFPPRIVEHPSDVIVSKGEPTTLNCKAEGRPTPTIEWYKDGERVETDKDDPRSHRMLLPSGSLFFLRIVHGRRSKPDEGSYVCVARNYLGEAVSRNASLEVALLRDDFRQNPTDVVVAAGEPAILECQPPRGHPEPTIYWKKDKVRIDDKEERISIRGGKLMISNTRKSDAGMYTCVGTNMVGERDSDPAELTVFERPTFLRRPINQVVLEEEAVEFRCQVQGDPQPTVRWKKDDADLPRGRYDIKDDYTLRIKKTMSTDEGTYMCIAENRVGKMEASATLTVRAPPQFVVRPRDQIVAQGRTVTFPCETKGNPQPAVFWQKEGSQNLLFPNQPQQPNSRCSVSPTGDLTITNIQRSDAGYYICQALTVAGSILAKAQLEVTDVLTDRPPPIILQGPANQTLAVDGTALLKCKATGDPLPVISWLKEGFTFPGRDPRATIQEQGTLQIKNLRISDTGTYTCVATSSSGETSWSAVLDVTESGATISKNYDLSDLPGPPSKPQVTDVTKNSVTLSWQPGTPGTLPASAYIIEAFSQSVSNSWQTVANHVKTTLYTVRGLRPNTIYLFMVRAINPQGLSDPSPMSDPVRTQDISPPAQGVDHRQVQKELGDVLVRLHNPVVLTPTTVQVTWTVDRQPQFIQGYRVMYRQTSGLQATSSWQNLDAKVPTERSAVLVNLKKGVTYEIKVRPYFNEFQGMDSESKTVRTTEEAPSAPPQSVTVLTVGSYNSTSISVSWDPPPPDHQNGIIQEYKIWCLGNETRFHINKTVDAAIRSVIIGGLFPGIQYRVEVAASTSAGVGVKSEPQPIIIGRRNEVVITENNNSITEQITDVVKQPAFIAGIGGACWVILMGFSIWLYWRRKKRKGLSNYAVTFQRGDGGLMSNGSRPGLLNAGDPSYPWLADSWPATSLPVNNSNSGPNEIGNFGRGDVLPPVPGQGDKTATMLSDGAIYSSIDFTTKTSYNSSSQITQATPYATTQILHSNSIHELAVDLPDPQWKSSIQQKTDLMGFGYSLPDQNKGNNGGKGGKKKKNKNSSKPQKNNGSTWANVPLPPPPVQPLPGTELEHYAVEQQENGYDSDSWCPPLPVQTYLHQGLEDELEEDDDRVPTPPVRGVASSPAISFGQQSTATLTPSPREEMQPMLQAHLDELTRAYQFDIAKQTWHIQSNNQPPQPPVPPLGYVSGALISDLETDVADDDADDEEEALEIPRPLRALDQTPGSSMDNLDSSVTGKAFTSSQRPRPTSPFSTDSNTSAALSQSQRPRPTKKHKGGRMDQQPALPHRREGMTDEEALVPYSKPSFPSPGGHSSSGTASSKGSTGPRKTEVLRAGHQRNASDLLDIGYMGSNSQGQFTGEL


Columns and labels:
[1] = molecular target: T1, Terbium (Tb) labeled-SNAP tagged ROBO2 …; test: HTRF, 5 nM d2-SLIT2-N on Tb-SNAP-ROBO2 HEK293 cells, 1 nM antibody
Procedure: (§1) In this assay, terbium (Tb) labeled-SNAP tagged ROBO2 expressing HEK293 cells were incubated with 5 nM d2-labeled SLIT-2N in the presence of 1 nM anti-ROBO2 antibodies for 1 hour. After incubation, fluorescence at 665 nm and 620 nm was measured on an Envision multilabel plate reader. […] Maximal signal was defined as the HTRF ratio of Tb-labeled ROBO2 cells with d2-labeled SLIT2-N in the absence of antibody, the minimum signal was defined as the HTRF ratio of Tb-labeled ROBO2 expressing HEK293 cells only. One nanomolar (nM) parental antibody, 93H2, was unable to block the HTRF assay, therefore this concentration was selected to identify clones with a higher affinity than 93H2 (Table 2, HTRF Ratio column). […] Antibodies derived from chain (Abcs series) or CDR shuffling (CTIR-2 series) were evaluated in 11-point, 5-fold dilution series with a top concentration of 1500 nM (Table 2 HTRF IC₅₀).
HTRF assays were run with 5 nM d2-labeled SLIT2-N and antibodies were added at 1 nM. […] Antibodies derived from chain (Abcs series) or CDR shuffling (CTIR-2 series) were evaluated in 11-point, 5-fold dilution series with a top concentration of 1500 nM, N.T. = not tested; ^cFold selectivity was calculated as Geometric Mean Fluorescent Intensity (Geo MFI) of ROBO2/Geo MFI of ROBO1 binding.

[2] = molecular target: T1, Terbium (Tb) labeled-SNAP tagged ROBO2 …; test: HTRF competition, competitor d2-SLIT2-N, ROBO2 HEK293 cells
Procedure: as §1, with “Antibodies generated as a result of the affinity maturation campaign were screened by numerous assays for neutralization of SLIT2-N binding, selective binding to ROBO2 over ROBO1, and inhibition of SLIT2-N functional activity (see Table 2). A ROBO2-SLIT2-N homogenous time resolved fluorescence (HTRF) assay was used to identify antibodies that were capable of blocking SLIT2-N binding to ROBO2. In” for “In”

[3] = molecular target: T2, Human ROBO2 overexpressed on HEK293 …; test: flow cytometry, Geo MFI ROBO2/ROBO1 HEK293 cells, 0.1 µg/ml
Procedure: (§2) Binding of the antibodies was detected using a secondary fluorochrome conjugated anti-human IgG F(ab′)₂ antibody and samples were analyzed on a Fortessa cytometer (BD Biosciences). The fold ROBO2 selectivity was calculated as the geometric mean fluorescence intensity (Geo MFI) with ROBO2 cells/Geo MFI with ROBO1 cells. A fold change higher than 3 was considered to be ROBO2 specific (Table 2, Fold Selectivity). Some affinity matured clones had increased ROBO1 reactivity, for example Abcs 55, CTI-R2-10 and CTIR2-13.
(§3) HTRF assays were run with 5 nM d2-labeled SLIT2-N and antibodies were added at 1 nM. […] Antibodies derived from chain (Abcs series) or CDR shuffling (CTIR-2 series) were evaluated in 11-point, 5-fold dilution series with a top concentration of 1500 nM, N.T. = not tested; ^cFold selectivity was calculated as Geometric Mean Fluorescent Intensity (Geo MFI) of ROBO2/Geo MFI of ROBO1 binding. […] Outcomes: results are listed in order of assays listed in the table (left to right), I.A. = Improved Affinity

[4] = molecular target: T3, Human ROBO1 RSK mutant overexpressed on HEK293 cells (human, UniProt Q9Y6N7 26-1651); test: flow cytometry, Geo MFI ROBO1-RSK/ROBO2-KSR HEK293 cells, 2.5 µg/ml
T3 construct: K137R and R139K already in the entry; also called ROBO1-RSK cells
T3 sequence (Q9Y6N7 other isoform, or with tags, fused parts or gaps mutant limits assumed): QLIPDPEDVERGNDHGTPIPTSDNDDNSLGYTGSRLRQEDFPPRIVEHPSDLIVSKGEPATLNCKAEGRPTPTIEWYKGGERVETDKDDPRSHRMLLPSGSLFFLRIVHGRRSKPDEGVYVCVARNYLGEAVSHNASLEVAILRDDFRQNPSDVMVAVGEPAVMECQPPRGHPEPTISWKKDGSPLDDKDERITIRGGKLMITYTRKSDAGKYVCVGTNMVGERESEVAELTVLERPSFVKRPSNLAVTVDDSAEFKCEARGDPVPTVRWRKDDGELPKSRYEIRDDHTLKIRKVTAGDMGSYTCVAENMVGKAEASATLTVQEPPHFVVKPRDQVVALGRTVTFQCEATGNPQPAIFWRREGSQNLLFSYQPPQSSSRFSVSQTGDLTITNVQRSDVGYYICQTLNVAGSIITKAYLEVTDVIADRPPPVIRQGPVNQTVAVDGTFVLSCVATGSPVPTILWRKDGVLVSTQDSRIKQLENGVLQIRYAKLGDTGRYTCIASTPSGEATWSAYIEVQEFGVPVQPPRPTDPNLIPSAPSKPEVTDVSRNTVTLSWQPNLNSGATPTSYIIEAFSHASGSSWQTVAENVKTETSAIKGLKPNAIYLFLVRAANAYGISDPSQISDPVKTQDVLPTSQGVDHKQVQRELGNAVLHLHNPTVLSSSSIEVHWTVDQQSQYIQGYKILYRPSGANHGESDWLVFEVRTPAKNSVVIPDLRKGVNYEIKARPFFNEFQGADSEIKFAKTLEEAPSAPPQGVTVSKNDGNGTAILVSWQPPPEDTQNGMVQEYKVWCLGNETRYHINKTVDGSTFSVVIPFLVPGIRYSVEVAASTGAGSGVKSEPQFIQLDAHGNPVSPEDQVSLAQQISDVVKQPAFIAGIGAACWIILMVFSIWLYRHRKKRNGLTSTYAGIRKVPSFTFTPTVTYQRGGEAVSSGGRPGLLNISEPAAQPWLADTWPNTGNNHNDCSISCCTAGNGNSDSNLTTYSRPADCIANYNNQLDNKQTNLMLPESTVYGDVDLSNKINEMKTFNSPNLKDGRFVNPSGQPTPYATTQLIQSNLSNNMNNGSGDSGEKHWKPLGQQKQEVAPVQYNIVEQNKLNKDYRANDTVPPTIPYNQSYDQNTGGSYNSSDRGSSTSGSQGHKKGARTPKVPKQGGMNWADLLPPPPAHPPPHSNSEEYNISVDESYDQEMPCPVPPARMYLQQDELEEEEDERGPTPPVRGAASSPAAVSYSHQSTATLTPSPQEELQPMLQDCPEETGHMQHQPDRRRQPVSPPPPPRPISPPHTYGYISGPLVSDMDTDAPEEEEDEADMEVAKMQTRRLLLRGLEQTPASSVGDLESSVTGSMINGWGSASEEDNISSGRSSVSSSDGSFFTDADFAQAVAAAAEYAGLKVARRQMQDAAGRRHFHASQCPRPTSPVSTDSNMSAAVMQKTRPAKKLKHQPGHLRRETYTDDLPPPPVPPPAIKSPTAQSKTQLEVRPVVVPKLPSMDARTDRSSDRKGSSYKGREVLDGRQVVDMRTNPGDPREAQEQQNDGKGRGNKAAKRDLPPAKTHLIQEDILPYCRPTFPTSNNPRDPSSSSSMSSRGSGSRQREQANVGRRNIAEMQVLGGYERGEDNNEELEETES

[5] = molecular target: T2, Human ROBO2 overexpressed on HEK293 …; test: flow cytometry, Geo MFI ROBO2/ROBO1 HEK293 cells, 2.5 µg/ml
Procedure: as §2, §3

Row | Binder | HTRF Ratio [1] | IC50 [2] [nM] | Fold Selectivity for ROBO2/ROBO1 [3] [fold] | Fold Selectivity for RSK/KSR [4] [fold] | Fold Selectivity for ROBO2/ROBO1 [5] [fold]
1 | Ab3 (antibody, human IgG1, kappa, V domains shown, full-length human IgG) VH: EVQLVQSGAEVKKPGASVKVSCKASGYTFTGYYMHWVRQAPGQGLEWMGWINPKSGATNFPQKFQGRVTMTRDTSITTAYMDLSRLRSDDTAVYYCARESGDDAFDIWGQGTMVTVSS VL: DIVMTQSPSSLSASVGDRVTITCRASQKISSYLNWYQQKPGKAPKLLIYAASSLQSGVPSRFSGSGSGTDFTLTISSLQPEDFATYYCQQSYSTSFGGGTKVEIKR | 6610 | 0.133 | 92 |  | 
2 | CTIR2-9 (antibody, human IgG1, kappa, V domains shown, CDR-shuffled IgG) VH: EVQLVQSGAEVKKPGASVKVSCKASGYTFTGYYMHWVRQAPGQGLEWMGWINPKSGATNFPQKFQGRVTMTRDTSITTAYMDLSRLRSDDTAVYYCARESGDDAFDIWGQGTMVTVSS VL: DIVMTQSPSSLSASVGDRVTITCRASQKISSYLNWYQQKPGKAPKLLIYAASSLQYGVPSRFSGSGSGTDFTLTISSLQPEDFATYYCQQSVGLFFGGGTKVEIKR | 3540 | 0.064 |  | > 100 | 14.8
3 | CTIR2-10 (antibody, human IgG1, kappa, V domains shown, CDR-shuffled IgG) VH: EVQLVQSGAEVKKPGASVKVSCKASGYTFRGYAMHWVRQAPGQGLEWMGWINPRSGVTEFPQKFQGRVTMTRDTSITTAYMDLSRLRSDDTAVYYCARESGDDAFDIWGQGTMVTVSS VL: not shown | 3920 | 0.04 |  | 1.4 | 2.3
4 | Abcs12 (antibody, human IgG1, kappa, V domains shown, chain-shuffled IgG; also called Abes12) VH: EVQLVQSGAEVKKPGASVKVSCKASGYTFTGYYMHWVRQAPGQGLEWMGWINPRNGITSFPQKFQGRVTMTRDTSITTAYMDLSRLRSDDTAVYYCARESGDDAFDIWGQGTMVTVSS VL: DIVMTQSPSSLSASVGDRVTITCRASQSISSYLNWYQQKPGKAPKLLIYAASSLQSGVPSRFSGSGSGTDFTLTISSLQPEDFATYYCQQSLELGFGGGTKVEIKR | 2910 | 0.032 |  | > 100 | 15.7
5 | CTIR2-13 (antibody, human IgG1, kappa, V domains shown, CDR-shuffled IgG) VH: EVQLVQSGAEVKKPGASVKVSCKASGYTFRGYAMHWVRQAPGQGLEWMGWIDPRTGLTKFPQKFQGRVTMTRDTSITTAYMDLSRLRSDDTAVYYCARESGDDAFDIWGQGTMVTVSS VL: DIVMTQSPSSLSASVGDRVTITCRASQKISSYLNWYQQKPGKAPKLLIYAASSLQYGVPSRFSGSGSGTDFTLTISSLQPEDFATYYCQQSYSTSFGGGTKVEIKR | 3530 | 0.055 |  | 2.5 | 2.3
6 | Abcs50 (antibody, human IgG1, kappa, V domains shown, chain-shuffled IgG) VH: EVQLVQSGAEVKKPGASVKVSCKASGYTFTGYYMHWVRQAPGQGLEWMGWINPKNGDTEFPQKFQGRVTMTRDTSITTAYMDLSRLRSDDTAVYYCARESGDDAFDIWGQGTMVTVSS VL: DIVMTQSPSSLSASVGDRVTITCRASQSISSYLNWYQQKPGKAPKLLIYAASSLQYGVPSRFSGSGSGTDFTLTISSLQPEDFATYYCQQSYSTSFGGGTKVEIKR | 2710 | 0.051 |  | 1.3 | 3.9
7 | CTIR2-6 (antibody, human IgG1, kappa, V domains shown, CDR-shuffled IgG) VH: EVQLVQSGAEVKKPGASVKVSCKASGYTFTGYYMHWVRQAPGQGLEWMGWINPKSGATNFPQKFQGRVTMTRDTSITTAYMDLSRLRSDDTAVYYCARESGDDAFDIWGQGTMVTVSS VL: DIVMTQSPSSLSASVGDRVTITCRASQKISSYLNWYQQKPGKAPKLLIYAASSLQSGVPSRFSGSGSGTDFTLTISSLQPEDFATYYCQQSVGLFFGGGTKVEIKR | 4160 | 0.067 |  | > 100 | 35
8 | Abcs5 (antibody, human IgG1, kappa, V domains shown, chain-shuffled IgG) VH: EVQLVQSGAEVKKPGASVKVSCKASGYTFTGYYMHWVRQAPGQGLEWMGWINPKNGDTEFPQKFQGRVTMTRDTSITTAYMDLSRLRSDDTAVYYCARESGDDAFDIWGQGTMVTVSS VL: DIVMTQSPSSLSASVGDRVTITCRASQSISSYLNWYQQKPGKAPKLLIYAASSLQSGVPSRFSGSGSGTDFTLTISSLQPEDFATYYCQQSLELGFGGGTKVEIKR | 3540 | 0.036 |  | 6.7 | 5.1
